Laboratory results from patent publication US11951175B2, “Bioconjugates containing sulfamide linkers for use in treatment” (priority 2016, dated 2024).

Columns and labels:
[1] = Rat safety study with cAC10 ADCs 115, 116 and Adcetris; type: in vivo, Wistar rats; details: as in legend of FIG. 19a-c: 115/116 at 40, 60, 70 or 80 mg/kg, Adcetris at 15, 20 or 40 mg/kg, mean body weight
Protocol: […] The test items were administered via intravenous (bolus) injection using a microflex infusion set introduced into a tail vein (2 mL/kg at 1 mL/min). One group of animals was treated with vehicle (control). After dosing, all animals were maintained for a 12-day observation period. Surviving animals were euthanized on day 12. Each animal was weighed at the time of randomization/selection, prior to dosing (day 0) and on all subsequent days up to day 12. Any individual animal with a single observation of >30% body weight loss or three consecutive measurements of >25% body weight loss was euthanized. All animals (including any found dead or killed moribund) were submitted to full necropsy procedures. Histopathological examinations of the liver, spleen and sciatic nerve was performed for all animals. Blood samples (including for animals killed moribund) were collected and subjected to determination of both haematological as well as serum clinical chemistry parameters.

[2] = reported value for Adcetris; cited from earlier work
Trastuzumab = test: Trimming of trastuzumab glycans by EndoSH; type: biochemical; details: 0.1 w/w % EndoSH, 37° C., after 1 hour, 25 mM Tris pH 8, MS analysis
Protocol: Trastuzumab (obtained from Epirus biopharma (Utrecht, The Netherlands); 14 mg/mL) in 25 mM Tris buffer pH 8, was trimmed using a concentration of either 0.1 or 1 w/w % EndoSH. The reactions, 350 μg trastuzumab (25 μL) and the appropriate amount of EndoSH, were stirred at 37° C. and analyzed by MS analysis over time, 1 to 3 hours. Samples were subjected to Fabricator treatment prior to analysis.

[3] = test system: Trastuzumab having high-mannose glycans; test: Trimming of high-mannose trastuzumab glycans by EndoSH; type: biochemical; details: 1 w/w % EndoSH, 37° C., after 3 hours, 25 mM Tris pH 8, MS analysis
Protocol: Trastuzumab having high-mannose glycans (obtained via transient expression in CHO K1 cells in the presence of kifunensine performed by Evitria (Zurich, Switzerland)) (14 mg/mL) in 25 mM Tris buffer pH 8, was trimmed using a concentration of either 0.1 or 1 w/w % EndoSH. The reactions, 350 μg high-mannose trastuzumab (25 μL) and the appropriate amount of EndoSH, were stirred at 37° C. and analyzed by MS analysis over time, 1-3 hours. Samples were subjected to Fabricator treatment prior to analysis.

Molecule	MTD [1] [mg/kg]	MTD (reported) [2] [mg/kg]	conversion to the trimmed product (core GlcNAc) (Trastuzumab)	conversion to the trimmed product (core GlcNAc) [3]
Adcetris: positive control; DAR4 ADC with antibody brentuximab and payload MMAE [reference compound]	15	18		
EndoSH (protein, fusion protein EndoSH) MPSIDSLHYLSENSKKEFKEELSKAGQESQKVKEILAKAQQADKQAQELAKMKIPEKIPMKPLHGPLYGGYFRTWHDKTSDPTEKDKVNSMGELPKEVDLAFIFHDWTKDYSLFWKELATKHVPKLNKQGTRVIRTIPWRFLAGGDNSGIAEDTSKYPNTPEGNKALAKAIVDEYVYKYNLDGLDVDVEHDSIPKVDKKEDTAGVERSIQVFEEIGKLIGPKGVDKSRLFIMDSTYMADKNPLIERGAPYINLLLVQVYGSQGEKGGWEPVSNRPEKTMEERWQGYSKYIRPEQYMIGFSFYEENAQEGNLWYDINSRKDEDKANGINTDITGTRAERYARWQPKTGGVKGGIFSYAIDRDGVAHQPKKYAKQKEFKDATDNIFHSDYSVSKALKTVMLKDKSYDLIDEKDFPDKALREAVMAQVGTRKGDLERFNGTLRLDNPAIQSLEGLNKFKKLAQLDLIGLSRITKLDRSVLPANMKPGKDTLETVLETYKKDNKEEPATIPPVSLKVSGLTGLKELDLSGFDRETLAGLDAATLTSLEKVDISGNKLDLAPGTENRQIFDTMLSTISNHVGSNEQTVKFDKQKPTGHYPDTYGKTSLRLPVANEKVDLQSQLLFGTVTNQGTLINSEADYKAYQNHKIAGRSFVDSNYHYNNFKVSYENYTVKVTDSTLGTTTDKTLATDKEETYKVDFFSPADKTKAVHTAKVIVGDEKTMMVNLAEGATVIGGSADPVNARKVFDGQLGSETDNISLGWDSKQSIIFKLKEDGLIKHWRFFNDSARNPETTNKPIQEASLQIFNIKDYNLDNLLENPNKFDDEKYWITVDTYSAQGERATAFSNTLNNITSKYWRVVFDTKGDRYSSPVVPELQILGYPLPNADTIMKTVTTAKELSQQKDKFSQKMLDELKIKEMALETSLNSKIFDVTAINANAGVLKDCIEKRQLLKKGGGGSGGGGSGGGGSHHHHHHEFGGGGSGGGGSGGGGSAPAPVKQGPTSVAYVEVNNNSMLNVGKYTLADGGGNAFDVAVIFAANINYDTGTKTAYLHFNENVQRVLDNAVTQIRPLQQQGIKVLLSVLGNHQGAGFANFPSQQAASAFAKQLSDAVAKYGLDGVDFDDEYAEYGNNGTAQPNDSSFVHLVTALRANMPDKIISLYNIGPAASRLSYGGVDVSDKFDYAWNPYYGTWQVPGIALPKAQLSPAAVEIGRTSRSTVADLARRTVDEGYGVYLTYNLDGGDRTADVSAFTRELYGSEAVRTP			Full conversions	Full conversions
